Target: human parkin, full-length, affinity tag cleaved (human) (UniProt O60260)
Test: ITC; parkin (20 µM in 162 µl) in the cell titrated with the chimera (mG2-Ub 100 µM, CISD1-Ub 212 µM, mG2-pUb 84 µM, CISD1-pUb 106 µM); 18°C or 25°C; 25 mM HEPES or 20 mM Tris, 100 mM NaCl, 250 µM TCEP, pH 7.5 or 8.0; duplicate; single-site model

Chain of human parkin, full-length, affinity tag cleaved (human) (O60260 whole entry): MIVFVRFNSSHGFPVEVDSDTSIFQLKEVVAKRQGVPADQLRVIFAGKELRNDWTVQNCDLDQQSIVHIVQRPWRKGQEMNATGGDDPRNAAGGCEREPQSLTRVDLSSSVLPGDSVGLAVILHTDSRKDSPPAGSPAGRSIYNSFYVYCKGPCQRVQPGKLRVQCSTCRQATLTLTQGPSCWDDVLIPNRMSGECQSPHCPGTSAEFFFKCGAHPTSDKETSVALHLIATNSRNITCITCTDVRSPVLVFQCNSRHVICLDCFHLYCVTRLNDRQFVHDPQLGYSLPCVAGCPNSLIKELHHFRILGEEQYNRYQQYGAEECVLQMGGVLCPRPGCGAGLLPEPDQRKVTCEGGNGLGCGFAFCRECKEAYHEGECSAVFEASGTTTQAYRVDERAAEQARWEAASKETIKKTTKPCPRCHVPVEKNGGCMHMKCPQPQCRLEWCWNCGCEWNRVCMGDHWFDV

Q: Which Kd does the source give for “CISD1-pUb (CISD1-Ub phosphorylated by PINK1 at S65 of its Ub) (from UniProt Q9NZ45 32-108; P0CG63 1-76)” here?
A: The Kd was 450 nM.

Q: What about the dH of the same substance?
A: Its dH is 7.17 kcal/mol.

Q: With “mG2-pUb (mG2-Ub phosphorylated by PINK1 at S65 of its Ub) (from UniProt Q8IXI2 402-582; P0CG63 1-76)” as the substance, how does the Kd read?
A: Its Kd is 920 nM.

Q: And the dH?
A: The dH was 9.8 kcal/mol.

From publication PMC9022993
